Measured values reported in US10736933B2, “Peptide-induced NK cell activation” (priority 2015, dated 2020).

Tests used:
HLA-Cw*0102 = HLA-Cw*0102 (Homo sapiens, UniProt P10321, A176E/A330V/A35S/A97T/C350S/D114A/D33F/L171W/L180R/L218V/M285V/M309V/M331V/P208H/Q277E/Q291P/R121W/R243W/R30K/S123C/S140Y/S297R/T329A/T363A/V272M/V319A); assay: Peptide binding to HLA-Cw*0102 on L721.174 cells (cell surface MHC class I, flow cytometry); assay type: cell-based; conditions: increasing concentrations of peptide, overnight at 26° C.
Method: (§1) The HLA-Cw*0102-positive cell line L721.174 was incubated with increasing concentrations of the LNPSVAATL (SEQ ID NO: 5) peptide or a control peptide VAPWNSLSL (SEQ ID NO: 11). Cells were stained for cell surface of MHC class I and analysed by flow cytometry. The mean fluorescence intensity of cell surface MHC Class I was plotted against the peptide concentration.
as §1, with “HLA-Cw*0102 • positive” for “HLA-Cw*0102-positive”, “peptides IVDLMCHATF” for “LNPSVAATL”, “1); VIDAMCHATL (SEQ ID NO: 2); AANVMAASL (SEQ ID NO: 3); and FLSDVPVATL (SEQ ID NO: 4)” for “5) peptide”, “[…].” for “VAPWNSLSL (SEQ ID NO: 11).”
3×10^5 cells were used per condition. Following washing in PBS the cells were stained for cell surface of MHC class I and analysed by flow cytometry. The mean fluorescence intensity of cell surface MHC Class I was plotted against the peptide concentration.
With reference to FIG. 12, the HLA-Cw*0102-positive cell line L721.174 was incubated with increasing concentrations of the peptides IVDLMCHATF (SEQ ID NO: 1), VIDAMCHATL (SEQ ID NO: 2), AANVMAASL (SEQ ID NO: 3); and FLSDVPVATL (SEQ ID NO: 4) overnight at 26° C. 3×10^5 cells were used per condition. Following washing in PBS the cells were stained for cell surface of MHC class I and analysed by flow cytometry. The mean fluorescence intensity of cell surface MHC Class I was plotted against the peptide concentration.

KIR2DS2 = target: T1, KIR2DS2 (Homo sapiens, UniProt P43631); assay: KIR2DS2 tetramer (KIR2DS2-PE) staining of peptide-loaded L721.174 cells; assay type: binding; conditions: L721.174 cells incubated overnight at 26° C. with peptide, flow cytometry
T1 construct: made in house
Method: A. The KIR2DS2 protein was expressed with a biotinylation C-terminal tag. Following biotinylation with the BirA enzyme, the KIR2DS2 protein was incubated with streptavidin-phycoerythrin to form fluorescent KIR2DS2-tetramers (KIR2DS2-PE). L721.174 cells were then incubated with indicated peptides. Cells were then stained with KIR2DS2-PE and analysed by flow cytometry. Shown are histogram plots. The bold numbers represent the mean fluorescent staining intensity of the KIR2DS2-PE staining of the cells in the presence of peptide and the non-bold numbers the staining in the absence of peptide. B. Represents the mean and standard error fluorescent intensities of the experiment in “A” following replicate experiments.
A. L721.174 cells were incubated with indicated peptides. Cells were then stained with KIR2DS2-PE (see FIG. 4) and analysed by flow cytometry. Shown are histogram plots. The bold numbers represent the mean fluorescent staining intensity of the KIR2DS2-PE staining of the cells in the presence of peptide and the non-bold numbers the staining in the absence of peptide. B. Represents the mean and standard error fluorescent intensities of the experiment in “A” following replicate experiments.
FIG. 13—KIR2DS2 tetramer staining on 174 cells with and without peptides. Peptides tested include IVDLMCHATF (SEQ ID NO: 1); VIDAMCHATL (SEQ ID NO: 2); AANVMAASL (SEQ ID NO: 3); and FLSDVPVATL (SEQ ID NO: 4). A negative control peptide VAPWNSFAL (SEQ ID NO: 12) and positive control peptide LNPSVAATL (SEQ ID NO: 5) were included. The mean fluorescence intensity of the KIR2DS2 tetramer staining is shown in the right hand corner of the graph.
With reference to FIG. 4A, the KIR2DS2 protein was expressed as a recombinant protein with a biotinylation C-terminal tag. Following biotinylation with the BirA enzyme, the KIR2DS2 protein was incubated with streptavidin-phycoerythrin to form fluorescent KIR2DS2-tetramers (KIR2DS2-PE). 3×10^5 L721.174 cells were then incubated overnight at 26° C. with indicated peptides at a concentration of […]. Cells were then stained with KIR2DS2-PE and analysed by flow cytometry. Shown are histogram plots. The bold numbers represent the mean fluorescent staining intensity of the KIR2DS2-PE staining of the cells in the presence of peptide and the non-bold numbers the staining in the absence of peptide. With reference to FIG. 4B, panel B represents the mean and standard error fluorescent intensities of the experiment in “A” following replicate experiments.
With reference to FIG. 5A, 3×10^5 L721.174 cells were incubated overnight at 26° C. with indicated peptides at a concentration of 200 μM. Cells were then stained with KIR2DS2-PE (see FIG. 4) and analysed by flow cytometry. Shown are histogram plots. The bold numbers represent the mean fluorescent staining intensity of the KIR2DS2-PE staining of the cells in the presence of peptide and the non-bold numbers the staining in the absence of peptide. With reference to FIG. 5B, panel B represents the mean and standard error fluorescent intensities of the experiment in “A” following replicate experiments.
With reference to FIG. 13, the KIR2DS2 protein was expressed as a recombinant protein with a biotinylation C-terminal tag. Following biotinylation with the BirA enzyme, the KIR2DS2 protein was incubated with streptavidin-phycoerythrin to form fluorescent KIR2DS2-tetramers (KIR2DS2-PE). […] Cells were then stained with KIR2DS2-PE and analysed by flow cytometry. […]

T1 sequence (P43631 22-245 limits assumed): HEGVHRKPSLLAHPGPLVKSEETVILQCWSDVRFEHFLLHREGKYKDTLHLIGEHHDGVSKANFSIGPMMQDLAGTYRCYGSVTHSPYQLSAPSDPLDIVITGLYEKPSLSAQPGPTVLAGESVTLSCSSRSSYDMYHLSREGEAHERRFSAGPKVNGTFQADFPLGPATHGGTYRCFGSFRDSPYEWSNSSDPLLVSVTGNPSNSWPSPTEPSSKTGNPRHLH

| Sequence | binding to HLA-Cw*0102 (mean fluorescence intensity of cell surface MHC Class I) (HLA-Cw*0102) | KIR2DS2-PE tetramer binding to HLA-C*0102 and peptide (KIR2DS2) |
| --- | --- | --- |
| IVDLMCHATF [Dengue virus peptide] | bind HLA-Cw*0102 | KIR2DS2 BINDS |
| LNPSVAATL [peptide recognized by KIR2DS2-positive NK cells] | binds HLA-Cw*0102 | KIR2DS2 binds |
